The text below walks through data of patent US20190152966A1 (INSTITUTE OF CANCER RESEARCH ROYAL CANCER HOSPITAL, published 2019).

In the experiment the target is T1, Epidermal Growth Factor Receptor (EGFR) (human, UniProt P00533 25-1210).
T1 construct: whole, on cells; also called HER1; EGF receptor
The experiment can be described thus: heading of the results section on rhMATN2 added to MDA-MB-231 cells.

B1: recombinant human MATN2 (rhMATN2) (ligand, UniProt O00339 24-956, looked up)
chain: RERSRGRSISRGRHARTHPQTALLESSCENKRADLVFIIDSSRSVNTHDYAKVKEFIVDILQFLDIGPDVTRVGLLQYGSTVKNEFSLKTFKRKSEVERAVKRMRHLSTGTMTGLAIQYALNIAFSEAEGARPLRENVPRVIMIVTDGRPQDSVAEVAAKARDTGILIFAIGVGQVDFNTLKSIGSEPHEDHVFLVANFSQIETLTSVFQKKLCTAHMCSTLEHNCAHFCINIPGSYVCRCKQGYILNSDQTTCRIQDLCAMEDHNCEQLCVNVPGSFVCQCYSGYALAEDGKRCVAVDYCASENHGCEHECVNADGSYLCQCHEGFALNPDKKTCTKIDYCASSNHGCQHECVNTDDSYSCHCLKGFTLNPDKKTCRRINYCALNKPGCEHECVNMEESYYCRCHRGYTLDPNGKTCSRVDHCAQQDHGCEQLCLNTEDSFVCQCSEGFLINEDLKTCSRVDYCLLSDHGCEYSCVNMDRSFACQCPEGHVLRSDGKTCAKLDSCALGDHGCEHSCVSSEDSFVCQCFEGYILREDGKTCRRKDVCQAIDHGCEHICVNSDDSYTCECLEGFRLAEDGKRCRRKDVCKSTHHGCEHICVNNGNSYICKCSEGFVLAEDGRRCKKCTEGPIDLVFVIDGSKSLGEENFEVVKQFVTGIIDSLTISPKAARVGLLQYSTQVHTEFTLRNFNSAKDMKKAVAHMKYMGKGSMTGLALKHMFERSFTQGEGARPLSTRVPRAAIVFTDGRAQDDVSEWASKAKANGITMYAVGVGKAIEEELQEIASEPTNKHLFYAEDFSTMDEISEKLKKGICEALEDSDGRQDSPAGELPKTVQQPTESEPVTINIQDLLSCSNFAVQHRYLFEEDNLLRSTQKLSHSTKPSGSPLEEKHDQCKCENLIMFQNLANEEVRKLTQRLEEMTQRMEALENRLRYR
notes: also called Matrilin2; human recombinant MATN2
With B1, the binding result was “binds”.
